In patent US20170016905A1 (VAR2 PHARMACEUTICALS, published 2017):

B1: DBL2X-DBL4ε (3D7, Baculo) (other)
chain: LTNCYKCDKCKSEQSKKNNKNWIWKKSSGKEGGLQKEYANTIGLPPRTQSLCLVVCLDEKGKKTQELKNIRTNSELLKEWIIAAFHEGKNLKPSHEKKNDDNGKKLCKALEYSFADYGDLIKGTSIWDNEYTKDLELNLQKIFGKLFRKYIKKNNTAEQDTSYSSLDELRESWWNTNKKYIWLAMKHGAGMNSTTCCGDGSVTGSGSSCDDIPTIDLIPQYLRFLQEWVEHFCKQRQEKVKPVIENCKSCKESGGTCNGECKTECKNKCEVYKKFIEDCKGGDGTAGSSWVKRWDQIYKRYSKYIEDAKRNRKAGTKNCGPSSTTNAAENKCVQSDIDSFFKHLIDIGLTTPSSYLSIVLDDNICGADKAPWTTYTTYTTTEKCNKETDKSKLQQCNTAVVVNVPSPLGNTPHGYKYACQCKIPTNEETCDDRKEYMNQWSCGSARTMKRGYKNDNYELCKYNGVDVKPTTVRSNSSKLDDKDVTFFNLFEQWNKEIQYQIEQYMTNTKISCNNEKNVLSRVSDEAAQPKFSDNERDRNSITHEDKNCKEKCKCYSLWIEKINDQWDKQKDNYNKFQRKQIYDANKGSQNKKVVSLSNFLFFSCWEEYIQKYFNGDWSKIKNIGSDTFEFLIKKCGNDSGDGETIFSEKLNNAEKKCKENESTNNKMKSSETSCDCSEPIYIRGCQPKIYDGKIFPGKGGEKQWICKDTIIHGDTNGACIPPRTQNLCVGELWDKRYGGRSNIKNDTKESLKQKIKNAIQKETELLYEYHDKGTAIISRNPMKGQKEKEEKNNDSNGLPKGFCHAVQRSFIDYKNMILGTSVNIYEYIGKLQEDIKKIIEKGTTKQNGKTVGSGAENVNAWWKGIEGEMWDAVRCAITKINKKQKKNGTFSIDECGIFPPTGNDEDQSVSWFKEWSEQFCIERLQYEKNIRDACTNNGQGDKIQGDCKRKCEEYKKYISEKKQEWDKQKTKYENKYVGKSASDLLKENYPECISANFDFIFNDNIEYKTYYPYGDYSSICSCEQVKYYEYNNAEKKNNKSLCHEKGNDRTWSKKYIKKLENGRTLEGVYVPPRRQQLCLYELFPIIIKNKNDITNAKKELLETLQIVAEREAYYLWKQYHAHNDTTYLAHKKACCAIRGSFYDLEDIIKGNDLVHDEYTKYIDSKLNEIFDSSNKNDIETKRARTDWWENEAIAVPNITGANKSDPKTIRQLVWDAMQSGVRKAIDEEKEKKKPNENFPPCMGVQHIGIAKPQFIRWLEEWTNEFCEKYTKYFEDMKSNCNLRKGADDCDDNSNIECKKACANYTNWLNPKRIEWNGMSNYYNKIYRKSNKESEDGKDYSMIMEPTVIDYLNKRCNGEINGNYICCSCKNIGENSTSGTVNKKLQKKETQCEDNKGPLDLMNKVLNKMDPKYSEHKMKCTEVYLEHVEEQLKEIDNAIKDYKLYPLD
notes: not shown: V5 and His tag at the C-terminal (modified pAcGP67-A)
B2: ID1-DBL3ε (3D7, Baculo) (other)
chain: LSFILNSSDANNPSEKIQKNNDEVCNCNESGIASVEQEQISDPSSNKTCITHSSIKANKKKVCKHVKLGVRENDKDLRVCVIEHTSLSGVENCCCQDFLRILQENCSDNKSGSSSNGSCNNKNQEACEKNLEKVLASLTNCYKCDKCKSEQSKKNNKNWIWKKSSGKEGGLQKEYANTIGLPPRTQSLCLVVCLDEKGKKTQELKNIRTNSELLKEWIIAAFHEGKNLKPSHEKKNDDNGKKLCKALEYSFADYGDLIKGTSIWDNEYTKDLELNLQKIFGKLFRKYIKKNNTAEQDTSYSSLDELRESWWNTNKKYIWLAMKHGAGMNSTTCCGDGSVTGSGSSCDDIPTIDLIPQYLRFLQEWVEHFCKQRQEKVKPVIENCKSCKESGGTCNGECKTECKNKCEVYKKFIEDCKGGDGTAGSSWVKRWDQIYKRYSKYIEDAKRNRKAGTKNCGPSSTTNAAENKCVQSDIDSFFKHLIDIGLTTPSSYLSIVLDDNICGADKAPWTTYTTYTTTEKCNKETDKSKLQQCNTAVVVNVPSPLGNTPHGYKYACQCKIPTNEETCDDRKEYMNQWSCGSARTMKRGYKNDNYELCKYNGVDVKPTTVRSNSSKLDDKDVTFFNLFEQWNKEIQYQIEQYMTNTKISCNNEKNVLSRVSDEAAQPKFSDNERDRNSITHEDKNCKEKCKCYSLWIEKINDQWDKQKDNYNKFQRKQIYDANKGSQNKKVVSLSNFLFFSCWEEYIQKYFNGDWSKIKNIGSDTFEFLIKKCGNDSGDGETIFSEKLNNAEKKCKENESTNNKMKSSETSCDCSEPIYIRGCQPKIYDGKIFPGKGGEKQWICKDTIIHGDTNGACIPPRTQNLCVGELWDKRYGGRSNIKNDTKESLKQKIKNAIQKETELLYEYHDKGTAIISRNPMKGQKEKEEKNNDSNGLPKGFCHAVQRSFIDYKNMILGTSVNIYEYIGKLQEDIKKIIEKGTTKQNGKTVGSGAENVNAWWKGIEGEMWDAVRCAITKINKKQKKNGTFSIDECGIFPPTGNDEDQSVSWFKEWSEQFCIERLQYEKNIRDACTNNGQGDKIQGDCKRKCEEYKKYISEKKQEWDKQKTKYENKYVGKSASDLLKENYPECISANFDFIFNDNIEYKTYYPYGDYSSICSCEQVKYYEYNNAE
notes: as for B1
B3: ID1-DBL4ε (3D7, Baculo) (other)
chain: LSFILNSSDANNPSEKIQKNNDEVCNCNESGIASVEQEQISDPSSNKTCITHSSIKANKKKVCKHVKLGVRENDKDLRVCVIEHTSLSGVENCCCQDFLRILQENCSDNKSGSSSNGSCNNKNQEACEKNLEKVLASLTNCYKCDKCKSEQSKKNNKNWIWKKSSGKEGGLQKEYANTIGLPPRTQSLCLVVCLDEKGKKTQELKNIRTNSELLKEWIIAAFHEGKNLKPSHEKKNDDNGKKLCKALEYSFADYGDLIKGTSIWDNEYTKDLELNLQKIFGKLFRKYIKKNNTAEQDTSYSSLDELRESWWNTNKKYIWLAMKHGAGMNSTTCCGDGSVTGSGSSCDDIPTIDLIPQYLRFLQEWVEHFCKQRQEKVKPVIENCKSCKESGGTCNGECKTECKNKCEVYKKFIEDCKGGDGTAGSSWVKRWDQIYKRYSKYIEDAKRNRKAGTKNCGPSSTTNAAENKCVQSDIDSFFKHLIDIGLTTPSSYLSIVLDDNICGADKAPWTTYTTYTTTEKCNKETDKSKLQQCNTAVVVNVPSPLGNTPHGYKYACQCKIPTNEETCDDRKEYMNQWSCGSARTMKRGYKNDNYELCKYNGVDVKPTTVRSNSSKLDDKDVTFFNLFEQWNKEIQYQIEQYMTNTKISCNNEKNVLSRVSDEAAQPKFSDNERDRNSITHEDKNCKEKCKCYSLWIEKINDQWDKQKDNYNKFQRKQIYDANKGSQNKKVVSLSNFLFFSCWEEYIQKYFNGDWSKIKNIGSDTFEFLIKKCGNDSGDGETIFSEKLNNAEKKCKENESTNNKMKSSETSCDCSEPIYIRGCQPKIYDGKIFPGKGGEKQWICKDTIIHGDTNGACIPPRTQNLCVGELWDKRYGGRSNIKNDTKESLKQKIKNAIQKETELLYEYHDKGTAIISRNPMKGQKEKEEKNNDSNGLPKGFCHAVQRSFIDYKNMILGTSVNIYEYIGKLQEDIKKIIEKGTTKQNGKTVGSGAENVNAWWKGIEGEMWDAVRCAITKINKKQKKNGTFSIDECGIFPPTGNDEDQSVSWFKEWSEQFCIERLQYEKNIRDACTNNGQGDKIQGDCKRKCEEYKKYISEKKQEWDKQKTKYENKYVGKSASDLLKENYPECISANFDFIFNDNIEYKTYYPYGDYSSICSCEQVKYYEYNNAEKKNNKSLCHEKGNDRTWSKKYIKKLENGRTLEGVYVPPRRQQLCLYELFPIIIKNKNDITNAKKELLETLQIVAEREAYYLWKQYHAHNDTTYLAHKKACCAIRGSFYDLEDIIKGNDLVHDEYTKYIDSKLNEIFDSSNKNDIETKRARTDWWENEAIAVPNITGANKSDPKTIRQLVWDAMQSGVRKAIDEEKEKKKPNENFPPCMGVQHIGIAKPQFIRWLEEWTNEFCEKYTKYFEDMKSNCNLRKGADDCDDNSNIECKKACANYTNWLNPKRIEWNGMSNYYNKIYRKSNKESEDGKDYSMIMEPTVIDYLNKRCNGEINGNYICCSCKNIGENSTSGTVNKKLQKKETQCEDNKGPLDLMNKVLNKMDPKYSEHKMKCTEVYLEHVEEQLKEIDNAIKDYKLYPLD
notes: as for B1

Biological target: T1, CSPG (bovine) (D8428, Sigma) (bovine, UniProt P21793 31-360, carries chondroitin sulfate A (CSA) glycosaminoglycan chain(s); the filing attributes the binding of VAR2CSA to this glycan)
T1 construct: also called chondroitin sulfate proteoglycan; CSA proteoglycan
T1 sequence (P21793 31-360): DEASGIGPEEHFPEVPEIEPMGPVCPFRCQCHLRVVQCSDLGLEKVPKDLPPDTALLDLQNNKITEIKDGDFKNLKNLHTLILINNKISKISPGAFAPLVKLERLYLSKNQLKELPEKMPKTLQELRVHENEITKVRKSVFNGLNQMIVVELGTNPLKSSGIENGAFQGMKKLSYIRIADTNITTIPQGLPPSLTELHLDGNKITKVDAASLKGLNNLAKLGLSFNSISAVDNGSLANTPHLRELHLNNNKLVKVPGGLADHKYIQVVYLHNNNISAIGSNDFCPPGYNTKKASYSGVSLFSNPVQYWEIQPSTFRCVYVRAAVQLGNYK
Assay: quartz crystal microbalance (Attana A100), CSPG coated, 1:1 fit

| Binder | Kd |
| --- | --- |
| B1 | 1.2 nM |
| B2 | 8.5 nM |
| B3 | 9.4 nM |
